Results on 1 molecule are retold here after patent US20230312739A1 (BIOTHEUS, published 2023).

Assay [1] addresses T1, human CD73 on the cell surface (tumor cells endogenously expressing human CD73; CHOS-human CD73) (human, UniProt P21589 27-549).
T1 construct: The endogenous CD73 of the human tumor lines (MDA-MB-231, Calu6, SK-ME-S, H2030, SKLU1, BT549, A375, HCC44) is treated as the same protein
T1 sequence: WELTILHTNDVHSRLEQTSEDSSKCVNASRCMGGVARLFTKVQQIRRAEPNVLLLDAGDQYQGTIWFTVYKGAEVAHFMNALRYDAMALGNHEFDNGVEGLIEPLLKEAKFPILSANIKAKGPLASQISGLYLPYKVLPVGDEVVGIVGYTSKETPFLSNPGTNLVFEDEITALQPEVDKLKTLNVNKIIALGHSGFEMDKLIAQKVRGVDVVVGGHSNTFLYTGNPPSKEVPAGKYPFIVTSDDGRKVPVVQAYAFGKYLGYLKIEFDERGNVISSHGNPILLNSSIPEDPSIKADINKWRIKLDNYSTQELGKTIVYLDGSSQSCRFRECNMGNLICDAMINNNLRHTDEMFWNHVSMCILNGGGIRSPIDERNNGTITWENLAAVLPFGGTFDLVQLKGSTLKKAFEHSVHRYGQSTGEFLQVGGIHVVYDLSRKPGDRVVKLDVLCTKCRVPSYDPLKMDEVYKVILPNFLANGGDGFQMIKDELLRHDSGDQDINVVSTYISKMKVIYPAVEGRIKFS
Description: cell binding on adherent CHOS-human CD73 cells, DyLight488 goat anti-mouse IgG, full-field cell scanning analyzer (Celigo), % fluorescent cells. The protocol: (§1) Experimental method: 10,000 cells were plated on a flat-bottom 96-well plate with 100 μL DMEM+10% FBS/well, cultured overnight so that the cells adhered to the well, and the supernatant was discarded on the next day. Serial 3-fold dilutions of antibody for 8 points were performed by diluting ⅓ of the total volume (100 μL) in 200 μL DMEM. 100 μL of the diluted antibody was added to each well of the cell plate (the supernatants of fused clones or subclones were used for screening), 100 μL of DMEM was added to the corresponding negative control well, and incubation was performed at room temperature for 1 hour. After the supernatant was discarded, 100 μL of secondary antibody (DyLight488 goat anti-mouse IgG (Abcam, Cat. No. ab97015)) was added to each well at a concentration of 5 μg/mL (diluted in DMEM), and incubation was performed for 0.5 hours at room temperature. After staining, the supernatant was discarded, followed by washing once with PBS+2% FBS, then 100 μL of PBS+2% FBS was added to each well, and then reading was performed on analyzer. A full-field cell scanning analyzer (Nexcelom Company, model Celigo® Image Cytometer) was used to measure the reading of the experimental plate. […] The binding effect of the anti-CD73 antibody to the CD73-expressing cell line was determined according to the percentage. […]

Assay [2] deals with T1, human CD73 on the cell surface (tumor …). Description: full-field cell scanning analyzer (Celigo), percent fluorescent cells, A375 cells endogenously expressing human CD73. The protocol:
as §1

For assay [3] the target is unchanged. Description: full-field cell scanning analyzer (Celigo), percent fluorescent cells, H2030 cells endogenously expressing human CD73. The protocol:
as §1

The target is the same in assay [4]. Kind of assay: full-field cell scanning analyzer (Celigo), percent fluorescent cells, CHOS cells recombinantly expressing human CD73. The protocol:
as §1

The next assay has as its target T2, murine CD73 on 4T1 cells (murine, UniProt Q61503 29-551).
T2 construct: whole, on cells; also called 4T1 (endogenously expressing murine CD73)
T2 sequence (looked up): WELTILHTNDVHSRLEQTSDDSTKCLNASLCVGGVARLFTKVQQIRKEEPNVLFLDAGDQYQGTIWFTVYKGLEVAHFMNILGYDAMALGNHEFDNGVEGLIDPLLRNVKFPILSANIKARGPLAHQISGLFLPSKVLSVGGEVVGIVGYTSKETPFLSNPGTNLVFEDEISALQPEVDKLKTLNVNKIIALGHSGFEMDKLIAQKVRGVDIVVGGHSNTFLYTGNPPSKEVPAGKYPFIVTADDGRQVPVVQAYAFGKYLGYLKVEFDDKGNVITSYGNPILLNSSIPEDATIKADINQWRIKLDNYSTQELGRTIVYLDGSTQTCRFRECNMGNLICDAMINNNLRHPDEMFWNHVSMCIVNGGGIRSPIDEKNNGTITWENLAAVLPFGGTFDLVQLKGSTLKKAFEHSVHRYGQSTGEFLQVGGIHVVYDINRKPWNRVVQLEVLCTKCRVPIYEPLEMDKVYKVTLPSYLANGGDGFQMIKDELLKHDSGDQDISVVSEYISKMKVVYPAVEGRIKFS
Description: cell binding on adherent 4T1 cells, DyLight488 goat anti-mouse IgG, full-field cell scanning analyzer (Celigo), % fluorescent cells. The protocol:
as §1

Assay [5] deals with T1, human CD73 on the cell surface (tumor …). Description: full-field cell scanning analyzer (Celigo), percent fluorescent cells, SKLU1 cells endogenously expressing human CD73. The protocol: as §1

B1: murine antibody 13D12 (antibody, V domains shown)
VH: DVKLQESGPAMVKPSQSLSLTCTVTGYSITSGYDWHWIRLFPGNKLEWMGYISYSGYTDYSPSLKSRISITHDTSKNHFFLKLHSVTTEDTATYYCTRGDHSYAMDYWGQGTSVTVS
VL: DIVMTQSHKFMSTSVGDRVSITCKASQAVGTAVAWYQQKPGQSPKLLIYWASSRHTGVPDRFTGSRSGTDFTLTISSVQSEDLADYFCQQYSSYPLTFGGGTNLEIK
notes: Mouse monoclonal antibody purified from hybridoma supernatant; also called mouse monoclonal antibody 13D12
A word on the EC50 (read off the curve): it is the concentration that produces a half-maximal response. The EC50 is the concentration needed to bring the measured effect to its halfway point. With B1, the “EC50 (read off the curve)” value in assay [1] is about 0.06 µg/mL. In addition, the EC50 was found to be 2.43 µg/mL in assay [2], 0.46 µg/mL in assay [3], 0.44 µg/mL in assay [4] and 2.46 µg/mL in assay [5]. The binding result with murine CD73 on 4T1 cells is on record as “no binding”.
